One substance from patent US20170362325A1 can be followed below.

This assay concerns the target CD18 (Integrin beta-2) (human) (UniProt P05107). Description: cell-based or functional assay.
UniProt P05107, sequence (P05107 23-769): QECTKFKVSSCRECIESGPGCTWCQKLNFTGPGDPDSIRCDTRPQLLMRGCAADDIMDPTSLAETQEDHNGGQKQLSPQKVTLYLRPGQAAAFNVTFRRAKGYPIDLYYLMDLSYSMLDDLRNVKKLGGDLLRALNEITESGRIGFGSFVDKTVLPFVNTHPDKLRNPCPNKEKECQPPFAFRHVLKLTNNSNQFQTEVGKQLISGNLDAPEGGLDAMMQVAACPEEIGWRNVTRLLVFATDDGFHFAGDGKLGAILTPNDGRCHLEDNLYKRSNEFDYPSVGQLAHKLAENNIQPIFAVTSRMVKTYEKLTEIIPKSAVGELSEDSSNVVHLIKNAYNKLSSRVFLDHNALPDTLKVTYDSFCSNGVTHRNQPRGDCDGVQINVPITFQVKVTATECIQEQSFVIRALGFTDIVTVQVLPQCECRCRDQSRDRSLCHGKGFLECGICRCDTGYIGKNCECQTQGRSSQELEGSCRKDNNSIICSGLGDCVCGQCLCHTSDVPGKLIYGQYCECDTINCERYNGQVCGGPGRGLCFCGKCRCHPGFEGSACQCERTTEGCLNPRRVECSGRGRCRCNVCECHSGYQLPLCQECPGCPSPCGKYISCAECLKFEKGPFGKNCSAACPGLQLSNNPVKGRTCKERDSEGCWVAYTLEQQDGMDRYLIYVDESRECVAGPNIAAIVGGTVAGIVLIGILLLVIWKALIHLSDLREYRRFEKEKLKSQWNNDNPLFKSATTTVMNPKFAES

Take anti-CD18 antibody molecule TS 1/18: the 3H-thymidine uptake (cpm), PBMC + HUVEC + PSMA×CD3, off target activation (FIG. 3A; control about 30000 cpm) was below 10000 cpm.
